Experimental data from the DeepSol protein solubility set.

Test: soluble on expression in E. coli; label from the status in PepcDB or PDB records

Soluble on expression in E. coli, not soluble:
MGSDKIHHHHHHMVTRITINRGKRCVDEADRCHNRWHPDIEPAAEVDPGDIVVIETRDALDGQITANPGVDDVASADLNVVHPLTGPVYVRGAKPGDLLVVEVLDIKAEPFGFTVAIPGFGFLRDLFDKPYKIRWRIEGGYAFSEDLPNVRIPGDPFLGVMGVAPSKELLKEIKEREDRLLKRGGFVLPPTPEGAVPPREPVASEGLRTIPPRENGGNLDVRHFSPGSKIYFPVFVEGALFSVGDAHYAQGDGEVCGTAIEMGATATLRFGVISEGAKKYGIRFPIFKPSESSVRRFTHSKHVAVTGVGVIDSLNESENATLSAKHALLNLINLLEKAGYTREQAYLLASVAADLRLSQLVDVPNFTVTAFLPLDIFIEPPEVLKKLAE
MGSDKIHHHHHHMVVIISAHNIATLEYQPMPKISDSGEPVEGVQAVALTLKILEALANARSTVGVTELSKQIGAGKARVYRHLQTLVTLGYALKDEESERYSTGPQLLRLSHTLSYRLDVVEAARLPARKLSDATGLTAVVARVEGDAIVVVHAEYSRADTMRSPRIGTTMQFHYTALGKIALAFGPAELRSRVLNEPLEQLTAYTITDRRDLMKKLEKIQELGWASSANEGMVGFNALAAPITDAHERLVGMICVVGSIKQLPATPPQNYLDALLSTADDISAYFGHVSRMPS
MGSDKIHHHHHHMWKELVESISNDMDNVDECFRPTHFWRMGAEYLQQDLDTYGITKFRSLPSTLGYFVPTYLFNGMITEPKKYAELASRCQDIVVTPKAKLFMTDFLSGESQARADFRVYLASQSNRAPYTEHFSESKVGEPVEHFEFEGRNYSRSSLNYLLGINFLKQHISDLSVKTVVEIGGGFGSLGEILLSDERNDTFYINVDIPPTCIFSTFYLQSVFGQSHVADYSVLSKQALVIDDLRSKHKAAIMCPWQLPSLEGKIDLFVNFISFQEMEPDIVENYLSEIDRLQSTYILLRNLREGKQLAHDDSQVGVKKAIKSDDYDKFLPDYELLATNVLPFGYQTIDGFHSELRLYRRKQPKLG
MGSDKIHHHHHHMWPNPALDTITHQWAQVFTNGGGLASLTDMIEQDVVVVGGGMVGAALAAGLGRAGLSVTVLENHMPQAFEASQPLDVRVSALSVASEALLERLDAWAGILSRRAVPYLGLETWEIESCITRFHASQIGADHLGHIVENRVVQLALWDLLSTLDSVTVKAPVNVMGFERLVDEDAICVALDSGERIKAKLLVGADGANSQVRAFAHIGVTGWDYAQSAMLINIATACEQQDVTWQQFTPQGPRSLLPLPGKNASLVWYDDASTIARLAKLNPNELADSIRAHFPARLDRDFRVLDKGHFKLTRRHAQRYFDANLVLIGDAAHTINPLAGQGVNLGFKDVDVLLDEIVSAVKKGENWHTKSVLERYQQRRWRDNQLMMSTMDAFYASFSNDLLPVKLLRNAALRLANVDGPIKRQVLKYAMGLK
MGSDKIHHHHHHMYEFNDTIRGTPKVTFNLKTTIGGKVLEDELNNGFGTFRTLTVSGRDVVDLEHQTTSVLGRNGEYFHNATVEVRKLEIKAKISGKDNKSMRLQYEKLNKLIVSHNQVFLSFSDEPDRNYLGIFKSKDVPEEVSNEQIIGLTFICYNPFKMSDVKTKKGTSIQNGGLFQTKPIITLNLSSPTKEIKLLHVESQKYIRLTGTYTTDEIKIDMATGKITQNGRNILGDLDMINSRYFELLPGNNTLQCANAAITAEFREVYL
MGSDKIHHHHHHMYEKYIVEGLSDREIAYLIGCGKATVVRARQKHGIYREDVKMCDDYTLDNISEDLRTFIDGLLLGDACITEKGNLLITQNKRYDWLEYVKHRFQQFGLNVYFHCYKYKRRTSEVIADLYVLSTSRYELFRQLRERWYPDGIKRIPNDLVINDEGLAQWYLGDGSLTKQKNGYKLELSTHGFTLDENKFLQQKLKLLYGFDFRISKKHQYRYLRLFKSKQVHAFCSIVEPFIPPSYRNKVRCLHDYQWLKSWDVI
MGSDKIHHHHHHMYGLIVNKASGNGKGQRTWKKVEYELQIRNTPYLVRFTSGSGHATTIVKELLTEGVKTIIAVGGDGTINEVANGLVNHRVPLGIIPAGSGNDFARCLNIPMHYEKALHRIFENKQKKVDLLHLGQRHCLTVTGIGFDGKIAKTVNEAIYKNWFNQFGFGGLSYVLSMLEVLKDYRPTNIQITVDGKELFFSGVWLVAVANSPNYGGGIRICPEASYDDGLLNICVVHGMSKWQLLRLFPKAYKGKHVVMEQHVTLLTGKDVYVQSDTPVLVQSDGEPIMESPVRLQIKKGALSVV
MGSDKIHHHHHHMYKMTDNELTQMGAVITTREIQQEPELWLETFKIYQEKKQAIDAFLGKIESEFNEPVRVVFTGAGSSAYVGDTAMPYLTENGDRNHFRFEAIDTTKIVSTPKQYLEKDTPTILVSFARSGNSPESVATVDIAEKYVKHLYQITITCAPEGKLALHAQEDDKNLVLMQPARSNDKGFAMTGSFSCMLLTTLLVFDAQHSDEQKETYVNAISKMGHEVIDRVDDIQKLVDTDFERIVYLGSGALGGLTREAQLKVLELTAGQKVTVFDTSMGFRHGPKSFVNSKTLLFDFVSNNAYTRQYDVDILEEVAGDEIAPVVMGIGVQSAHNFTGSNFNFANGDDSIPDGYMAFPDVMFAQTISLLSSIKVKNTPDTPSATGTVNRVVKGVTIHDFEG
MGSDKIHHHHHHMYLKISHTTEYHYDEPVQYALQRLRLTPVNLPGQTVRNWKTLVDGAAIEVSYDDQFGNRTHLVSLDADRTTLCIEANGEVETEDRAGVFGAHQSYVPLWLYARETPLTKPGKRIRELAKAAGGATELERMHALMAIIHETVRYEQGETQVGTSAEEALERGKGVCQDHAHILISAARTLGLPARYVSGYLMMEDHPQQTASHAWADVHIAGLGWVGFDPANKVCPDDRYVRIASGLCYRDAAPVSGLVHGTGTETLKVAVTVEQQGQSQAQN
MGSDKIHHHHHHMYLLDSAIAKQIVSRTMKIIGHNINVMNGQGMILGSGDPKRIGSIHEGALLAIAQNRNVEISQEVAASLHGVKPGINLPLHYQGQIIGVVGITGDPNELTHYGELLKMTAEMIVEQANLQDKLQWENRQREEFILQLIKAETDDRQLHRWAKQLDIDMSMPRVAAIIEISEKSTPIKIPKRPSDPLAIDLADTLQVNASDDRNHRVGETLKQVLHLLQYPDRGNLIAMTSMSQLVILKPAFLDGKQWDPELENQRIDRLLQRLPAQMNLNFKIALGHFFPENGGIARSYQTALETLALGKQLNPEGNKYLFEDYSLQVLLSGLKYDWRGQALAMPYQQLAKADKNGQLRKTLAAYITHFGDAQQCANTLFIHRNTLRYRLDKIQQITQADIQSLHGLLSLYLGQLIDSSKNTG
MGSDKIHHHHHHMYMEKRQFIKDIAVNGDVNGLFLIASANQMQAKNGPFWRLEICDASGTLNAKIWSPLSASFETLTPGDVVHLEGRAGLFRDRIDISVDRMRVLAPYELEALDMGQFLVSSERDPAEMLTELLELCREVFTHRPWRKFVTGVLRNEELAEALKAAPAAKSVHHAYRGGLLEHILSVSGLCMRIADHYPEIDRQVLLAGAIFHDIGKAWELSGGLVNDYTDEGRLLGHIHIGLEQLEPFLRRSGLEHELAVHFKHLILSHHGEYEFGSPRRPKTREAMVLHYADNLDAKMAQLNSLFKGFEDGETGWTPFQPTLQRFLYNPVRTPETETVRRKRPETPREEQCSLLSKG
MGSDKIHHHHHHMYPECAKLPTFLRTVHEDVDAQARSLFTLDQNYMQVDPGPFCGTMATCDFGTGLVVSFEQVNKRVLQVAAVPFGTAQVALILEAGEPTTHNQVGRIRNAGVVMAPGAEARLSAGANTRVCLISIAGEAADHLRSRYNFDPDSLRADIFLDPAETTALRGLVTEAYQRFSSPQADRSFDQASAAAFHEAVLSVTAWTCASSARTQNQHRVAGDCRTTALTAAIRLIDHNLHNPVTVEWLARTLGVSRRSLEQAFGEAFDTSPGRYIKVLRLNSLRQMLRDPSNAEVSIGDLAARCGLWHQGRLASEFRELFGVLPSEARG
MGSDKIHHHHHHMYPKNFWYVGAMKHEVGRQLLARTLLEQPVVFFRRNDGSVAALADRCSHRRVSLSLGRLIGDEVQCGYHGLTFAGDGSCTSIPGQSRVPPSACVRSYPVVERDGFVWIWPGDPALANETLVPDYAEICSSGRYVGRPAEALLVEAPFLFNIENVLDLSHVTYAHPETVGTPEVALTRPTVDVSEAKVQVTRNWDKASTGPSFKNLFGWDFVKNSQRISFWPGANMLLEIEVEPVGNNDPTQIKRLRVPGPCTPSTSTTHFKFSALYRDFLPDNEALTVGMFEQFRKTVMEDKVLMENQQRNWALDGVEVIRRIEPSSSGGMMDIAVDHAPLAARRWLQRLAMAERSAPEIKAPGVLQG
MGSDKIHHHHHHPAAVKKIIETGQTDNRVMHQLDILTNRFGGRVIGSDAYENAAEWMMREYKRWGIDVRLEEAGELPVGFNRGPWFGRLIGGDQAMDLHFVTPSYTSGTKGLQRGHVLIEPRTQEELDRMKHQLKGAWVLISGENVGWPVDRSAKGDSLRAAIKAENIEIEKQNAALMEENWSKGTKHAMKPLREMPGLFYKEMCEAGALGFIQSAPVPLRALYDRALLNDPHTTFDNLPEVCDIKLDEHQYKIIKQMVKERRNFWLEFDIRNHFKLGPVKYHNVVASIKGTKYPDEYVIISGHLDSYDVATGGIDCGTGIGPMMEAARMIALSGAKPKRTILFVAFAGEEFGLLGAKAYVKTHAKELGKIANLFNRDGGPTPPVGISVPQAMYDDFVEVCKPVKEIRADYPFEVKVAKPFKRPTQSGGTDASVFAVEGVPTFGFNTQDIKGYNFSYGEIWHTERDLYTKNIPEYQEHAATVTAVVALGIANLSKQLSREGMHKK
MGSDKIHHHHHHPVWNPDNGNGTFTNPIMWGDWPDPDVIRVGDDFYFVSTSMHYVPGCPIATSKDLVNWKMAGYAVDRYDEDARYDLKGGDRYLRGSWAATIRHHNGKFYVGFCTPSWEGEGPGHFSICIADDVKGPWERTIFPEYLYDPGLLFDDDGKVYVFHGQGTLYVTELASDAKSVKGEKVKIWDKRFKNAHEFGGGYGMEGAHAYKINGKYYLTCPAGGTEGWQICLRSDNIYGPYEHKLIMNDSGSYPPNGLHQGGMVQLKNGDWWFIIMQDRGPIGRVPHLVPVKWVDGWPMLGSGGKDIITYPKPEVGKTYPFASPATTDEFNTSSLGLQWQWNHNPDNSRWSLKERKGHMRLKASYAESLKTARNTLTQRVQGPSSEATVELDVSGLKDGNVAGFGVFEFPYAYVAVEQTNGEKKIVMCNDGQTIETIDRFEGNKIWIRARVMDVGFRAVFYYSTDGKYFLPIGNELSMGLGLVWTANRFALFNFSKEKAGEDGYTDFNWFRFTNK
MGSDKIHHHHHHSCGNKDKGTTVPEGNPSDREAMLKNVADNIVIPANAKFEIKLDNMIAKSDVFRNNPTVTTLSEYRIAWAEAYIEWQKIGIFDFGPAADVALNSYMNVYPANVSNINANILSGNANLEVFESYSAQGFPAIDYLINGSADTDDDIVALYVTGEDADKRKAYLLRLTNQMHAKFEAVNAAWKGDYRNTFVSSTGTGLNASTSVMVNGIVFYYERFIRSGKFGIPSGAMTGTPLNASVEAYYKKDIGKILAQTAQQAFVDYFNGKGVTTGIEGPSLKTYLNALDAKDATTKQPLSEIINNQFTVVDSKLNVLSDNLSNEVLTNKAAMVAVYNEMQKAVRMLKVDMTSALSVTITYTDNDGD
